This test addresses T1, his-tagged F110A variant of human ferrochelatase (FECH), recombinant from E. coli (human, UniProt P22830 55-423, F110A).
T1 sequence (looked up): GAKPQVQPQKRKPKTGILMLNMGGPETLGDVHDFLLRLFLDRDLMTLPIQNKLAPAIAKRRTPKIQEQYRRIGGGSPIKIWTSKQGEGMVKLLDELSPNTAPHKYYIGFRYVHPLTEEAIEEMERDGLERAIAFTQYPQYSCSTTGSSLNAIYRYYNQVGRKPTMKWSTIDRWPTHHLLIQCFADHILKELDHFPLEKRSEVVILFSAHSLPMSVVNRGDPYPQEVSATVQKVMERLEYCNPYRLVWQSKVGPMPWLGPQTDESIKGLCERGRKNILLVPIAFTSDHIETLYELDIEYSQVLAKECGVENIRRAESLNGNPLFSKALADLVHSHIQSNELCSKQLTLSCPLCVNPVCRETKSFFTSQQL
Nature of the test: pull-down.

Some results are limits rather than exact numbers.

B1: non-tagged full length human PGRMC1, recombinant from E. coli (natural protein)
chain: not shown
With B1, the “fold of PGRMC1 recovered (against wild-type FECH)” value was over 2 fold.
